Paper PMC10644391 (2023)
Ends that are not written are not given here.

Target: T1, HEG1 cytoplasmic tail 7-mer peptide cytoplasmic tail 7-mer (Homo sapiens, UniProt Q9ULI3, also: Cy5-labelled)
T1 chain: SRRRDYF
Assay: fluorescence polarization

B1: KRIT1 417-736 (protein)
chain: KPYEKVRIYRMDGSYRSVELKHGNNTTVQQIMEGMRLSQETQQYFTIWICSENLSLQLKPYHKPLQHVRDWPEILAELTNLDPQRETPQLFLRRDVRLPLEVEKQIEDPLAILILFDEARYNLLKGFYTAPDAKLITLASLLLQIVYGNYESKKHKQGFLNEENLKSIVPVTKLKSKAPHWTNRILHEYKNLSTSEGVSKEMHHLQRMFLQNCWEIPTYGAAFFTGQIFTKASPSNHKVIPVYVGVNIKGLHLLNMETKALLISLKYGCFMWQLGDTDTCFQIHSMENKMSFIVHTKQAGLVVKLLMKLNGQLMPTERNS
Question: How did the Kd turn out when B1 was run?
Answer: 13 nM
